Source: publication PMC10718073 (Chemical Science, 2023)

Assays:
Assay in all cases: native MS
[1] = target: AmtB from Escherichia coli (Escherichia coli) (UniProt P69681)
[2] = target: AqpZ with C-terminal fusion to the green fluorescent protein (Escherichia coli) (UniProt P60844)
native MS [3] = target: the molecule itself
native MS [4] = target: the molecule itself; remark: listed apart in the source

“AmtB from Escherichia coli (from UniProt P69681 23-428) (natural protein)” gave a stoichiometry N [1] of 3.

In the case of “AqpZ with C-terminal fusion to the green fluorescent protein (from UniProt P60844 1-231) (natural protein)”, the stoichiometry N [2] is reported as 4.

B1: TRAAK (K2p4.1b), residues 1-290 with N104Q and N108Q (domain or fragment)
chain: MTTAPQEPPARPLQAGSGAGPAPGRAMRSTTLLALLALVLLYLVSGALVFRALEQPHEQQAQRELGEVREKFLRAHPCVSDQELGLLIKEVADALGGGADPETQSTSQSSHSAWDLGSAFFFSGTIITTIGYGNVALRTDAGRLFCIFYALVGIPLFGILLAGVGDRLGSSLRHGIGHIEAIFLKWHVPPELVRVLSAMLFLLIGCLLFVLTPTFVFCYMEDWSKLEAIYFVIVTLTTVGFGDYVAGADPRQDSPAYQPLVWFWILLGLAYFASVLTTIGNWLRVVSRRT
With B1 the “stoichiometry N” value (native MS [3]) was 2.

B2: TREK2, residues 55-335 with T58A (domain or fragment)
chain: MEGASQGGLQTVMKWKTVVAIFVVVVVYLVTGGLVFRALEQPFESSQKNTIALEKAEFLRDHVCVSPQELETLIQHALDADNAGVSPIGNSSNNSSHWDLGSAFFFAGTVITTIGYGNIAPSTEGGKIFCILYAIFGIPLFGFLLAGIGDQLGTIFGKSIARVEKVFRKKQVSQTKIRVISTILFILAGCIVFVTIPAVIFKYIEGWTALESIYFVVVTLTTVGFGDFVAGGNAGINYREWYKPLVWFWILVGLAYFAAVLSMIGDWLRVLSKKTKEEVGE
modifications: glycans, treated with EndoH to reduce the glycan heterogeneity
B2: binds (native MS [4]).
